Assay results published in US20060183125A1.

Legend:
[1] = target: human TREM-1-Ligand (human); assay: flow cytometry on peripheral neutrophils of a sepsis patient, 1 µg huTREM-1/IgM
[2] = target: human TREM-1-Ligand (human); assay: flow cytometry on peripheral neutrophils of a sepsis patient, 0.2 µg huTREM-1/IgM
[3] = target: human TREM-1-Ligand (human); assay: flow cytometry, double staining with anti CD15, CD15 low neutrophils of a septic patient
[4] = target: human TREM-1-Ligand (human); assay: flow cytometry, double staining with anti CD15, CD15 high neutrophils of a septic patient
[5] = target: murine TREM-1-Ligand (mouse); assay: flow cytometry, low Ly-6G peritoneal cell subset, control mouse
[6] = target: murine TREM-1-Ligand (mouse); assay: flow cytometry, peritoneal cells of a representative control mouse
[7] = target: murine TREM-1-Ligand (mouse); assay: flow cytometry, low Ly-6G peritoneal cell subset, septic (CLP) mouse
[8] = target: murine TREM-1-Ligand (mouse); assay: flow cytometry, high Ly-6G peritoneal cell subset, septic (CLP) mouse
[9] = target: murine TREM-1-Ligand (mouse); assay: flow cytometry, peritoneal cells of a representative septic (CLP) mouse
[10] = target: murine TREM-1-Ligand (mouse); assay: flow cytometry, tetramer staining of blood cells of septic mice 6 hours after CLP induction

| percent of cells stained positive [1] | percent of cells stained positive [2] | percentage of TREM-1-Ligand expressing cells [3] | percentage of TREM-1-Ligand expressing cells [4] | frequency of double positive population [5] | frequency of Ly-6G positive, murine TREM-1-Receptor/IgG positive cells [6] | frequency of double positive population [7] | frequency of double positive population [8] | frequency of Ly-6G positive, murine TREM-1-Receptor/IgG positive cells [9] | percent of Ly-6G positive cells positive [10] | Substance |
| --- | --- | --- | --- | --- | --- | --- | --- | --- | --- | --- |
| 80% | 45% | 38% | 2% | – | – | – | – | – | – | human TREM-1-Receptor/human IgM fusion protein (from UniProt Q9NP99 21-200) |
| – | – | – | – | 40% | 8.8% | 77% | 33% | 35% | 2% | murine TREM-1-Receptor/human IgG fusion protein (from UniProt Q9JKE2 21-202) (Fc fusion) |
